The DeepSol protein solubility set

Test: soluble on expression in E. coli; label from the status in PepcDB or PDB records

Row | Sequence | soluble on expression in E. coli
1 | MSDSTQMEANAAINEIKKRTRKLDQSLQMRFCADQFFIGNHCTKLASGKSIIISQNSKNRICLRFFMAADPLVGYTGRDFGIAFNQIDHISLKDEQQENPAVLICTLNLSSYTKMCKLQTGLKDVVEKPFLYNKSLARNLTFILKPWNDDPDTFVKISYNDEHREYVHSYDYDVAKSLMFKEVQAVWEQSLKEQLQRRHQTGRVYLTSQLSEMTPREWVQFLADQKLSKIVCHNGSIQYARVEDNPHGRKHTAVATNGFDHRGTRVLNSFGKAHASLATQEKSYAKKRKLTEQSLKLIYRNDRSVWLEGSCAKNLKMPKINSEPNMGEFMGWPDMDNAMTHPTSNFENEDVMKSTKQPNDFVSFEQLQAPPPVLQRQNGAIYSTQSVAFTHISGNDGVEDLTEKISHLGEEAYNIDMANALHAFSDNWHYEIHPNTVHNASFEQLHIGDGNSSIGTIGFNPLEPYPQSSFPQSNNWQQAHGDFTFPQVSFPNTQQGSCLPSTPTAALPPTRPVVEKIPPDTQLFTFPPSGSCTTGMDPVVLLVKDIKTLDRKEFLNDSVMAFMLNYIAFMLSSELMKSVHMCNTFLFVNLTRLLPPLCFSKRRPIEPEHIKIVKDNCPRVLRWTRKFDVLAKDYIIIPINEDLHWLVIAVINPSGAIVDMSNEEASRAAPKCYIVFFDPLSGLDPSKKNHMCHCIKIYLAQLYENTKAPGMKFASKNPTIYDEERVVVTRAENTPIQDNFYDCGLYVLHFIEGLFCYPNRPVNVNDFPNFDWSKFFPEANKMCDLMRDKVYNLILQQADKPARSRLAKFERENKCGLSREGALRKARRHSAVNERRTKRHRDYYARHYSLSPPHRNVMNDDPTFMNPRGLAEMPITRLVRRLRIPEDNFPIAY | not soluble
2 | MSDTANTAVEVDEQVIEKKLDDLSIGKKRSPSKDDTSKHRLPAAERIRIWEEEQKAKIVLTAGLQGKVKWYSVLRRYGFISRSDGEKDVFVHQTAISKSDTEKFYLRTLADEEEVLFDLVDGKNGPEAANVTGPAGVNVSGSKYRHQLLSRFRKNRKPKIVVGEDFDSKETEKLVEAPAVAMEKKKQRKQRKNKNRKQKDQKGAGDAADSSATTESLGTSSETASPDSKSCTKIISEEAGLSKIDRCDSALDDAGLGAQLIDAQI | soluble
3 | MSDWFQLDKEYMMSTYCRTKIAIERGEGCKLYDVDGKEYLDLFSGVGVNVLGYNHPKIVQTTMDQVTKSLHLPFHFLNPVAIEYAKKLVDCSLKNGKVFFTNSGTEATETTLKLIDKYRAITNEEREGIVVLKNSFHGRTLGALHFTRQESVYQNFPTTSIPVYEVERENIEQLEETIINENPIAILLEPVLGSGGIYPLSREYLHGVQNLCDKYNVILIVDEVQSGMGRTGKLFAYQNFNITPHIIQIGKGAGGGIPLGGIIVGEKLCDVFAPGDHGTTFAHSSMGTALGLTVLNTLLDDGLMQEAYEMSLYLNDKLQEIQKENSYYIEEVRHAGMMFGISLNDTNENVKKLQVELMEKGILVDVTQGNIIRLLPPYIITKEEIDTFITQFIFCIDKVAAVVSA | not soluble
4 | MSEAPATEHGQCLCGAVGFTATLGAREFGVCHCSMCRRWSGGAFMAVECTDIAFENEQRLGVYSSSKWGERCFCKNCGSTLVWRSKDGKHFAVSLQAFDKPSSFTFVQQIFTDEKPSSYSFAQTTQNMTGPEFIAMITSAEH | not soluble
5 | MSEDHHDEEQFDSAESGAAATFPKQCSALRKNEHVMIRGRPCKIVEMSTSKTGKHGHAKVHMVAIDIFTTKKLEDICPSTHNMDVPVVKRREYILMSIEDGFCSLMDPESCELKDDLKMPEGDLGNTIREALEKDEGSVLVQVVAACGEEAILGYKISTKE | not soluble
6 | MSEDIGVTRFREYLRVNTEQPKPDYEACRDFLFKYADELGIERRSVETAPGTYFVIMTIPGSKPDLPSIMLYSHTDVVPTFREYWTHDPYSAFKDEDGNIFARGAQDMKCVGVQYMEALRNWFAKGVKQWTRTIHIVWGPDEEIGHINGMKGFAVTEEFKKLNIDFALDEGIATEDDVYKIFYAERIPWWVKVTLPGHPGHGSKFIEKTAIEKLHKLIASVDEFRNEQKSLLAEHPEWTVGDVTTSNITIINGGVQVNVVPEKFEAYIDIRVTPLQDLDAVLARVDQWAKEAGEGVTYEFMQFSNFKLISPNTREDPFWAAIDDALQKEGCKYKKEIFIGATDSRFVRAQGIRAIGFSPIINTPSLLHDHNEFLNEKTFLRGVEIYETLINKLANVN | not soluble
7 | MSEEKPLKVSYSKQFVRDLTDLAKRSPNVLIGSKYITAIHCLLNRLPLPENYQDHALVGEWKGYRDCHIQGDLVLIYQYVIQDEFDELKFSRLNIHSQTALK | not soluble
8 | MSEELPNITTSEKKSFLQSLFSCLFQSEPKNREDLVEVIRDSLENELIDNDTKEMMEGVMEISELRVRDIMIPRPQIVYIDANLPLEACVDLIIESAHSRFPVILDDGKDNIQGMLLAKDLLKYLRSDSAPFDMQKMLRPAVIVPESKRVDRMLKEFRSERFHMAIVVDEFGAVSGLVTIEDILEQIVGDIEDEFDEEEIEPIRQLSRHTYAVSALTDIEKFNAVFATDFVDEEVDTIGGLVMQAFSHLPQRGEQVNLHGIDFKVTSADSRRLIQLRVTVSDEQLEQMERITDLEE | not soluble
9 | MSEESQAFQRQLTALIGYDVTDVSNVHDDELEFTRRGLVTPRMAEVASRDPKLYAMHPWVTSKPLPEYLWKKIANNCIFIVIHRSTTSQTIKVSPDDTPGAILQSFFTKMAKKKSLMDIPESQSEQDFVLRVCGRDEYLVGETPIKNFQWVRHCLKNGEEIHVVLDTPPDPALDEVRKEEWPLVDDCTGVTGYHEQLTIHGKDHESVFTVSLWDCDRKFRVKIRGIDIPVLPRNTDLTVFVEANIQHGQQVLCQRRTSPKPFTEEVLWNVWLEFSIKIKDLPKGALLNLQIYCGKAPALSSKASAESPSSESKGKVQLLYYVNLLLIDHRFLLRRGEYVLHMWQISGKGEDQGSFNADKLTSATNPDKENSMSISILLDNYCHPIALPKHQPTPDPEGDRVRAEMPNQLRKQLEAIIATDPLNPLTAEDKELLWHFRYESLKHPKAYPKLFSSVKWGQQEIVAKTYQLLARREVWDQSALDVGLTMQLLDCNFSDENVRAIAVQKLESLEDDDVLHYLLQLVQAVKFEPYHDSALARFLLKRGLRNKRIGHFLFWFLRSEIAQSRHYQQRFAVILEAYLRGCGTAMLHDFTQQVQVIEMLQKVTLDIKSLSAEKYDVSSQVISQLKQKLENLQNSQLPESFRVPYDPGLKAGALAIEKCKVMASKKKPLWLEFKCADPTALSNETIGIIFKHGDDLRQDMLILQILRIMESIWETESLDLCLLPYGCISTGDKIGMIEIVKDATTIAKIQQSTVGNTGAFKDEVLNHWLKEKSPTEEKFQAAVERFVYSCAGYCVATFVLGIGDRHNDNIMITETGNLFHIDFGHILGNYKSFLGINKERVPFVLTPDFLFVMGTSGKKTSPHFQKFQDICVKAYLALRHHTNLLIILFSMMLMTGMPQLTSKEDIEYIRDALTVGKNEEDAKKYFLDQIEVCRDKGWTVQFNWFLHLVLGIKQGEKHSAHHHHHH | soluble
10 | MSEFLTHPFEPFFDKDSKILILGSFPSIKSRQDGFYYQHPRNRFWPILETLFNAKLENITEQQAFLRKKHIALWDVLQSCKIKNSDDKTISYAKANDLNLILSQTKIQAIFTTGQSAYRFFVKFHPRLEAIALPSTSPANLNFSFEQLLQNYEIIKKFTKLEHHHHHH | soluble
11 | MSEGITDIEESQIQTNYDKVVYKFDDMELDENLLRGVFGYGFEEPSAIQQRAIMPIIEGHDVLAQAQSGTGKTGTFSIAALQRIDTSVKAPQALMLAPTRELALQIQKVVMALAFHMDIKVHACIGGTSFVEDAEGLRDAQIVVGTPGRVFDNIQRRRFRTDKIKMFILDEADEMLSSGFKEQIYQIFTLLPPTTQVVLLSATMPNDVLEVTTKFMRNPVRILVKKDELTLEGIKQFYVNVEEEEYKYECLTDLYDSISVTQAVIFCNTRRKVEELTTKLRNDKFTVSAIYSDLPQQERDTIMKEFRSGSSRILISTDLLARGIDVQQVSLVINYDLPANKENYIHRIGRGGRFGRKGVAINFVTNEDVGAMRELEKFYSTQIEELPSDIATLLN | soluble
12 | MSEITLGKYLFERLKQVNVNTVFGLPGDFNLSLLDKIYEVEGMRWAGNANELNAAYAADGYARIKGMSCIITTFGVGELSALNGIAGSYAEHVGVLHVVGVPSISAQAKQLLLHHTLGNGDFTVFHRMSANISETTAMITDIATAPAEIDRCIRTTYVTQRPVYLGLPANLVDLNVPAKLLQTPIDMSLKPNDAESEKEVIDTILVLDKDAKNPVILADACCSRHDVKAETKKLIDLTQFPAFVTPMGKGSIDEQHPRYGGVYVGTLSKPEVKEAVESADLILSVGALLSDFNTGSFSYSYKTKNIVEFHSDHMKIRNATFPGVQMKFVLQKLLTTIADAAKGYKPVAVPARTPANAAVPASTPLKQEWMWNQLGNFLQEGDVVIAETGTSAFGINQTTFPNNTYGISQVLWGSIGFTTGATLGAAFAAEEIDPKKRVILFIGDGSLQLTVQEISTMIRWGLKPYLFVLNNDGYTIQKLIHGPKAQYNEIQGWDHLSLLPTFGAKDYETHRVATTGEWDKLTQDKSFNDNSKIRMIEVMLPVFDAPQNLVEQAKLTAATNAKQ | soluble
13 | MSEIVIRHAETRDYEAIRQIHAQPEVYCNTLQVPHPSDHMWQERLADRPGIKQLVACIDGDVVGHLTIDVQQRPRRSHVADFGICVDSRWKNRGVASALMREMIEMCDNWLRVDRIELTVFVDNAPAIKVYKKFGFEIEGTGKKYALRNGEYVDAYYMARVK | not soluble
14 | MSEKPLTKTDYLMRLRRCQTIDTLERVIEKNKYELSDNELAVFYSAADHRLAELTMNKLYDKIPSSVWKFIR | soluble
15 | MSEKPQQEEQEKPQSRRNSFAVIEFTPEVLDRCLKQVEFYFSEFNFPYDRFLRTTAEKNDGWVPISTIATFNRMKKYRPVDKVIEALRSSEILEVSADGENVKRRVPLDLTAARNARIEQNQRTLAVMNFPHEDVEASQIPELQENLEAFFKKLGEINQVRLRRDHRNKKFNGTVLVEFKTIPECEAFLKSYSNDDESNEILSYEGKKLSVLTKKQFDLQREASKSKNFSGRSRSFNGHKKKNLPKFPKNKKKNGKEESKEDSSAIADDDEEHKE | soluble
16 | MSELSQLSPQPLWDIFAKICSIPHPSYHEEALAAHILEWAKEKGIYAERDQVGNILLRKAATAGMENRKPVVLQAHLDMVPQKNNDTVHDFTTDPIQPYVDGEWLKARGTTLGADNGIGMASALAVLADPSVEHGPLEVLLTMTEEAGMDGAFGLQPNWLQGEILINTDSEEEGEIYMGCAGGIDFITRLPLVREVPPAGYQTLKLTIKGLKGGHSGGDIHLGLGNANKLLARFLFEQAEALDIRILDLNGGTLRNAIPREAFATLSLPAANVEQLKTLSQDYLAVLKNELSAVEKNLTVLVEANDSNEHPLTQDSRDRLLGLLNATPNGVIRMSDDVKGVVETSLNLGVVTMEDDHAEIICLIRSLIDSGKDAVVGTLTALGQLAGAKTSPKGGYPGWQPDAHSPVMALVRETYQKQFNKTPNIMVIHAGLECGLFKKPYPDMDMVSIGPTITGPHSPDEQVHIGSVDLYWKLLTELLKAIPPRALEHHHHHH | soluble
17 | MSEMSLIMLAAGNSTRFNTKVKKQFLRLGNDPLWLYATKNLSSFYPFKKIVVTSSNITYMKKFTKNYEFIEGGDTRAESLKKALELIDSEFVMVSDVARVLVSKNLFDRLIENLDKADCITPALKVADTTLFDNEALQREKIKLIQTPQISKTKLLKKALDQNLEFTDDSTAIAAMGGKIWFVEGEENARKLTFKEDLKKLDLPTPSFEIFTGNGFDVHEFGENRPLLLAGVQIHPTMGLKAHSDGDVLAHSLTDAILGAAGLGDIGELYPDTDMKFKNANSMELLKQAYDKVREIGFELINIDICVMAQSPKLKDFKQAMQSNIAHTLDLDEFRINVKATTTEKLGFIGRKEGMAVLSSVNLKYFDWTRL | soluble
